How the values were obtained:
[1] = target: NF-IL6 (C/EBPbeta) tryptic core domain bZIP (TCD) (UniProt P17676); experiment: FP; conditions: Kobs, direct titration, normal phosphate backbone
NF-kB p50 homodimer [2] = target: T1, NF-kB p50 homodimer (UniProt P19838 P19838:1-433); experiment: EMSA; labeled probe in competition assays; conditions: chain copies: 2 (stated); label: 32P
NF-kB p50 homodimer [3] = target: T1, NF-kB p50 homodimer; experiment: EMSA; full monothiolation loses specificity; conditions: chain copies: 2 (stated)
NF-kB p50 homodimer [4] = target: T1, NF-kB p50 homodimer; experiment: EMSA; competition with 32P-IgkB; specificity lost on full thiolation; conditions: chain copies: 2 (stated)
Experimental: In standard competitive binding assays, ³²P-IgκB promoter element ODN duplex was incubated with recombinant p50 or p65 and competitor oligonucleotide (A) phosphodiester CK-1; (B) phosphorothioate CK-1. The reactions were then run on a nondenaturing polyacrylamide gel, and the amount of radioactivity bound to protein and shifted in the gel was quantitated by direct counting. […] It is the recognition that [S]-ODNs with large numbers of phosphorothioate linkages are “sticky” and tend to bind with poor specificity to proteins that led to one of the embodiments of the present invention. Using the method disclosed herein it was determined that if the number of phosphorothioate linkages is reduced to only 2-4, specificity can be restored, but binding is not enhanced.

c-Rel homodimer [5] = target: T2, c-Rel homodimer (UniProt Q04864 Q04864:2-619); experiment: EMSA; binds and competes; conditions: chain copies: 2 (stated)
T2 sequence: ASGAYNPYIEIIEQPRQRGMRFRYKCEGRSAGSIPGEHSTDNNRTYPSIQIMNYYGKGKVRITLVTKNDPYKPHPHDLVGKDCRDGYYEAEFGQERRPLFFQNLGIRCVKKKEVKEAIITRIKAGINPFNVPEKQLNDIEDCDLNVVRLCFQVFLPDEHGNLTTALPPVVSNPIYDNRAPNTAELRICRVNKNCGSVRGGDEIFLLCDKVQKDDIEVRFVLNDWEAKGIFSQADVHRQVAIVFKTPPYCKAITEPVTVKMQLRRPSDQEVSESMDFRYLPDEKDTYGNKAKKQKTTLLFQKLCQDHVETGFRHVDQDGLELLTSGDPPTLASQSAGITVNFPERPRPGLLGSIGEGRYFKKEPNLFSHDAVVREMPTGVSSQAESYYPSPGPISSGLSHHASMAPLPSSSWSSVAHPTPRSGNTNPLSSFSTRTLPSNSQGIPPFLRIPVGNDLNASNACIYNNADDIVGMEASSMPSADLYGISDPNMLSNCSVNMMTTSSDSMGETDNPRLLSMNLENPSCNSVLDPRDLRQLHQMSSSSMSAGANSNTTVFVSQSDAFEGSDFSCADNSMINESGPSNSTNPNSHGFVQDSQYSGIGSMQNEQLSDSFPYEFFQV

c-Rel homodimer [6] = target: T2, c-Rel homodimer; experiment: EMSA; single-copy site behaves similarly to CK-1; conditions: chain copies: 2 (stated)

T1 sequence (P19838 1-433, one chain of several): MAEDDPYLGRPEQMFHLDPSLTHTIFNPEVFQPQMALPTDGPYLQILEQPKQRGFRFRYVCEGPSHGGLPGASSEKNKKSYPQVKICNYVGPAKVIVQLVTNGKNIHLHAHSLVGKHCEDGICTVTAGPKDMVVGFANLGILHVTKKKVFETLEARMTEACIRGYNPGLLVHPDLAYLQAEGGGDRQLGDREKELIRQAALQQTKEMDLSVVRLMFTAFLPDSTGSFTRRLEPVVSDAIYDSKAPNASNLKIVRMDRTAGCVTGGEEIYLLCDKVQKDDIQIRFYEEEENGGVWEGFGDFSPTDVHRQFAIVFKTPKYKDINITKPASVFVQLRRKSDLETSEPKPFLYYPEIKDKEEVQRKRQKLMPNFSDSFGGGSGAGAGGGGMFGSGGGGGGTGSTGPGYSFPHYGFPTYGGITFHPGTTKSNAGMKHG
NF-IL6 (C/EBPbeta) tryptic core domain bZIP (TCD), sequence (P17676 266-345): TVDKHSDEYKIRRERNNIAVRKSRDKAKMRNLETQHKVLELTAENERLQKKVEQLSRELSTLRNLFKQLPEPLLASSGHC

With “TGCAGATTGCGCAATCTGCA (double strand) [C/EBPbeta palindromic 20-mer]” the Kd [1] was 10 nM.

B1: IgkB promoter element 22-mer (dsDNA)
DNA 1: AGTTGAGGGGACTTTCCCAGGC
DNA 2: GCCTGGGAAAGTCCCCTCAACT
B1: binds (NF-kB p50 homodimer [2]).

B2: CK-14 fully monothiolated duplex (dsDNA)
DNA 1: CCAGGAGATTCCAC
DNA 2: GTGGAATCTCCTGG
modifications: PS all linkages
B2: binds (NF-kB p50 homodimer [3]).

B3: CK-1 phosphorothioate duplex (dsDNA)
DNA 1: CCAGGAGATTCCACCCAGGAGATTCCACCCAGGAGATTCCAC
DNA 2: GTGGAATCTCCTGGGTGGAATCTCCTGGGTGGAATCTCCTGG
modifications: PS all linkages
B3: binds (NF-kB p50 homodimer [4]).

B4: CK-1 42-mer phosphodiester duplex (dsDNA)
DNA 1: CCAGGAGATTCCACCCAGGAGATTCCACCCAGGAGATTCCAC
DNA 2: GTGGAATCTCCTGGGTGGAATCTCCTGGGTGGAATCTCCTGG
B4: binds (c-Rel homodimer [5]).

B5: CK-14 phosphodiester duplex (dsDNA)
DNA 1: CCAGGAGATTCCAC
DNA 2: GTGGAATCTCCTGG
B5: binds (c-Rel homodimer [6]).
